One test deals with T1, O8.
T1 chain: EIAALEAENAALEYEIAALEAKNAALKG
Nature of the test: two-hybrid library CC0.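 Further: natural log of median RNA to DNA barcode read ratio; higher means stronger binding.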 The conditions noted are these: mean of both orientations.

Another test deals with T2, O7.
T2 chain: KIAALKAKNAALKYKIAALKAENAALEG
The experiment in a line: two-hybrid library CC0.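 Further: natural log of median RNA to DNA barcode read ratio; higher means stronger binding.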 Particulars: mean of both orientations.

For a further test, the target named is T3, O9.
T3 chain: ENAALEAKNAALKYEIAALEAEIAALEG
Nature of the test: two-hybrid library CC0.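 Further: natural log of median RNA to DNA barcode read ratio; higher means stronger binding.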 The conditions noted are these: mean of both orientations.

The next test deals with T4, P3-AA.
T4 chain: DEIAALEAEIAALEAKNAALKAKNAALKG
Nature of the test: two-hybrid library CCmax.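 Further: natural log of median RNA to DNA barcode read ratio; higher means stronger binding.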 The conditions noted are these: mean of both orientations.

The target of a further test is T5, P12-AA.
T5 chain: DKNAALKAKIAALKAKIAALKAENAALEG
The experiment in a line: two-hybrid library CCmax. The conditions noted are these: mean of both orientations.

A further test concerns the target T6, P11-AA.
T6 chain: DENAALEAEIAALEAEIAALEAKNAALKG
Nature of the test: two-hybrid library CCmax. Particulars: mean of both orientations.

The target in another test is T7, P4-AA.
T7 chain: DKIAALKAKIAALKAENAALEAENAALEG
Nature of the test: two-hybrid library CCmax. Particulars: mean of both orientations.

In a further test the target is T8, zCON9_A.
T8 chain: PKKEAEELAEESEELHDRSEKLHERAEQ
The experiment in a line: two-hybrid library CCmax. Particulars: mean of both orientations.

Another test concerns the target T9, zCON9_B.
T9 chain: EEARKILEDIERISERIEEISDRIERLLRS
Nature of the test: two-hybrid library CCmax. Particulars: mean of both orientations.

The target of a further test is T10, P9-AA.
T10 chain: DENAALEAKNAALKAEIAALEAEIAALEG
The experiment in a line: two-hybrid library CCmax. The conditions noted are these: mean of both orientations.

In the next test the target is T11, P8-AA.
T11 chain: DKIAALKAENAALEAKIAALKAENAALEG
The experiment in a line: two-hybrid library CCmax. The conditions noted are these: mean of both orientations.

A further test has as its target T12, P2-AA.
T12 chain: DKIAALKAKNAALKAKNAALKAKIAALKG
The experiment in a line: two-hybrid library CCmax. Particulars: mean of both orientations.

In another test the target is T13, P7-AA.
T13 chain: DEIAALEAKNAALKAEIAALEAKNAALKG
The experiment in a line: two-hybrid library CCmax. Particulars: mean of both orientations.

The target in the next test is T14, P10-AA.
T14 chain: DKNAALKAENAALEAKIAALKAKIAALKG
The experiment in a line: two-hybrid library CCmax.

The target of a further test is T15, zCON9_D.
T15 chain: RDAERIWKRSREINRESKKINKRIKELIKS
The experiment in a line: two-hybrid library CCmax.

In a further test the target is T16, 4H687-bA.
T16 chain: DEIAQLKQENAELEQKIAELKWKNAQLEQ
Nature of the test: two-hybrid library CCNG1.

The target in the next test is T17, 4H370-bH.
T17 chain: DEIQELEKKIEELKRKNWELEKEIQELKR
The experiment in a line: two-hybrid library CCNG1.

The target of the next test is T18, 4H797-bH.
T18 chain: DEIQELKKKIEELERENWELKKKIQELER
Nature of the test: two-hybrid library CCNG1.

A further test addresses T19, 4H967-bH.
T19 chain: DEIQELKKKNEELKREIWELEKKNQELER
The experiment in a line: two-hybrid library CCNG1.

Another test addresses T20, 4H953-bH.
T20 chain: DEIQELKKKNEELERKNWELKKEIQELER
The experiment in a line: two-hybrid library CCNG1.

A further test has as its target T21, 4H4001-bH.
T21 chain: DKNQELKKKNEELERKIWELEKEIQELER
Nature of the test: two-hybrid library CCNG1.

The target of a further test is T22, 4H918-bH.
T22 chain: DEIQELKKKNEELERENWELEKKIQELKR
The experiment in a line: two-hybrid library CCNG1.

The target in another test is T23, 4H607-bH.
T23 chain: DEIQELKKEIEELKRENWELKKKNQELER
Nature of the test: two-hybrid library CCNG1.

The next test deals with T24, 4H687-bH.
T24 chain: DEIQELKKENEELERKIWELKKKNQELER
The experiment in a line: two-hybrid library CCNG1.

In a further test the target is T25, 4H3782-bH.
T25 chain: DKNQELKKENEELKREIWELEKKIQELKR
The experiment in a line: two-hybrid library CCNG1.

Another test has as its target T26, 4H72-bH.
T26 chain: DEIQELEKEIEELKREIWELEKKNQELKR
Nature of the test: two-hybrid library CCNG1.

The target of a further test is T27, 4H3843-bH.
T27 chain: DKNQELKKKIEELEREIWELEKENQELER
The experiment in a line: two-hybrid library CCNG1.

Another test concerns the target T28, 4H462-bH.
T28 chain: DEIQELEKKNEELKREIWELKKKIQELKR
The experiment in a line: two-hybrid library CCNG1.

The target in the next test is T29, 4H568-bH.
T29 chain: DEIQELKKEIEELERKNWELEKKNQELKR
The experiment in a line: two-hybrid library CCNG1.

The next test addresses T30, 4H883-bH.
T30 chain: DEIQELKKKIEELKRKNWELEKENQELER
Nature of the test: two-hybrid library CCNG1.

The target of the next test is T31, 4H3297-bH.
T31 chain: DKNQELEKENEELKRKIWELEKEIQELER
Nature of the test: two-hybrid library CCNG1.

Another test addresses T32, 4H3364-bH.
T32 chain: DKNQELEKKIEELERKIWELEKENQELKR
The experiment in a line: two-hybrid library CCNG1.

Another test has as its target T33, 4H949-bH.
T33 chain: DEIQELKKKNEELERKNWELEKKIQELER
Nature of the test: two-hybrid library CCNG1.

The target of a further test is T34, 4H730-bH.
T34 chain: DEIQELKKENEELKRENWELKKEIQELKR
Nature of the test: two-hybrid library CCNG1.

The target in a further test is T35, 4H349-bH.
T35 chain: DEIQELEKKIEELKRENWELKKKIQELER
The experiment in a line: two-hybrid library CCNG1.

For a further test, the target named is T36, 4H3381-bH.
T36 chain: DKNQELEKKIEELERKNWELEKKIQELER
The experiment in a line: two-hybrid library CCNG1.

The target of a further test is T37, 4H796-bH.
T37 chain: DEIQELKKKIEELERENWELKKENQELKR
The experiment in a line: two-hybrid library CCNG1.

A further test has as its target T38, 4H932-bH.
T38 chain: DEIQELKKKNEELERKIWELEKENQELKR
The experiment in a line: two-hybrid library CCNG1.

In another test the target is T39, 4H56-bH.
T39 chain: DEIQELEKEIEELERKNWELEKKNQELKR
Nature of the test: two-hybrid library CCNG1.

KIAALKAKNAALKYKIAALKAENAALEG [O7]: the figures for the interaction score in the test with O8, in the test with O7 and in the test with O9 were 1.47, -2.81 and -2.77, respectively.

Take DKNAALKAENAALEAKIAALKAKIAALKG [P10-AA]: the interaction score with P3-AA is -0.118; with P12-AA, -1.23; with P11-AA, 1.43; in the test with P4-AA, -1.35; in the test with zCON9_A it was -1.58; with zCON9_B it was -0.0248. Also, the interaction score with P9-AA is 2.32; with P8-AA, -1.28; with P2-AA, -1.38; in the test with P7-AA, -0.0691; with P10-AA, -0.869; with zCON9_D, -1.97.

As for DEIQELEKKIEELKRKNWELEKEIQELKR [4H370-bH], the interaction score in the test with 4H687-bA came out at 0.534; in the test with 4H370-bH it was 0.649; in the test with 4H797-bH it was 0.396; with 4H967-bH, 0.239; with 4H953-bH, 0.739; with 4H4001-bH it was 0.0634. The interaction score in the test with 4H918-bH is -0.0355; with 4H607-bH, -0.999; in the test with 4H687-bH it was -1.39; with 4H3782-bH, 0.858; with 4H72-bH, -0.56; in the test with 4H3843-bH, 0.946. Also, the interaction score was 0.842 with 4H462-bH, 0.618 in the test with 4H568-bH and -0.56 with 4H883-bH.

Turning to DKNQELEKENEELKRKIWELEKEIQELER [4H3297-bH], the interaction score was 0.804 with 4H370-bH; 0.885 with 4H3297-bH; -0.362 in the test with 4H3364-bH; -1.66 in the test with 4H949-bH; -0.0968 with 4H730-bH; -0.0353 in the test with 4H349-bH. Besides, the interaction score was -0.113 with 4H3381-bH, -0.673 with 4H796-bH, -0.844 in the test with 4H932-bH and -1.32 in the test with 4H56-bH.

The values are drawn from publication PMC10397247.
